Reference: patent US20020147306A1, “Peptides that modulate the interaction of B class ephrins and PDZ domains” (priority 1998, published 2002)

Key:
GRIP PDZ6 = target: T1, GRIP PDZ6 (Mus musculus, UniProt Q925T6); test: Fluorescence polarization binding of fluorescent peptide to GST fusion of GRIP PDZ6
T1 construct: separate GST fusions of GRIP PDZ6 and GRIP PDZ7; made in house
T1 sequence (Q925T6 672-754 limits assumed): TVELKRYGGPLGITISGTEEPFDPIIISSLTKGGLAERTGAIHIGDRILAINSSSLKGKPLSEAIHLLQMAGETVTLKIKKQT
Description: (§1) All fluorescence polarization measurements were conducted at 22° C.

GRIP PDZ7 = target: T2, GRIP PDZ7 (Mus musculus, UniProt Q925T6); test: Fluorescence polarization binding of fluorescent peptide to GST fusion of GRIP PDZ7
T2 construct: separate GST fusions of GRIP PDZ6 and GRIP PDZ7; made in house
T2 sequence (Q925T6 1003-1085 limits assumed): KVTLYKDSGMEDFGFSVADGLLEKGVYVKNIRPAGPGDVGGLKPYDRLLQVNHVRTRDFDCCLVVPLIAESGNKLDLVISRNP
Description: as §1

[1] = target: T3, GST-FAP-1 PDZ5 binding to ephrin B1 (Homo sapiens, UniProt Q12923); test: Peptide competition of GST-FAP-1 PDZ5 binding to ephrin B1 (GST mixing, immunoblot); conditions: peptide 100 μM, lysates of ephrin B1-transfected Cos-1 cells
T3 construct: made in house; ephrin B1: transiently transfected Cos-1 cells (lysate)
T3 sequence (Q12923 1788-1868 limits assumed): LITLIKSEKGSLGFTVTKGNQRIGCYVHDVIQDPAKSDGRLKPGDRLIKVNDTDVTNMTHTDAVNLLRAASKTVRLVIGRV
Description: FIGS. 4A and 4B. FAP-1 PDZ5 and syntenin binding to ephrin B1 can be blocked by addition of peptides corresponding to the C-terminal sequence of B ephrins. Peptides of the indicated sequence were included at a concentration of 100 μM in incubations of GST fusion proteins with lysates of Cos-1 cells transfected with ephrin B1. Associated proteins were separated on a 10% polyacrylamide/SDS gel and analyzed by immunoblotting with antibodies against ephrin B1. FIG. 4A, Competition of FAP-1 PDZ5 binding to ephrin B1 using the indicated peptides. A peptide of sequence DHQpYpYND was added at a concentration of 100 μM as a negative control. Immunoprecipitation of ephrin B1 was included as a positive control. FIG. 4B, Peptide competition of the binding of full-length syntenin to ephrin B1.
Cos-1 cells were maintained in DMEM supplemented with 10% fetal bovine serum (FBS). Transient transfections were performed using Lipofectin reagent and Opti-MEM medium (Life Technologies Inc.) as outlined by the manufacturer. To reduce phosphorylation of ephrin B1 by binding to endogenously expressed EphB receptors or by stimulation with serum growth factors, transfected cells were transferred from 10 cm to 15 cm plates 24 h after transfection and serum starved in DMEM 0.5% FBS 12 h prior to cell lysis. […]

| interaction with GST fusion of GRIP PDZ6 (GRIP PDZ6) | interaction with GST fusion of GRIP PDZ7 (GRIP PDZ7) | blocking of GST-FAP-1 PDZ5 binding to ephrin B1 [1] | Substance |
| --- | --- | --- | --- |
| not detected | not detected | – | GNIYYKV [fluorescent B ephrin C-terminal peptide] |
| – | – | did not decrease binding | DHQpYpYND |
